According to patent US20240118272A1:

Tests used:
[1] = molecular target: CD9(ECD)-ALP conjugate (human; bovine); experiment: HI-1000 capture immunoassay; primary calibrator C4, 50.05 ng/mL; run 1
[2] = molecular target: CD9(ECD)-ALP conjugate (human; bovine); experiment: HI-1000 capture immunoassay; thawed aliquot 2 of secondary calibrator C4
[3] = molecular target: CD9(ECD)-ALP conjugate (human; bovine); experiment: HI-1000 capture immunoassay; thawed aliquot 3 of secondary calibrator C2
[4] = molecular target: CD9(FL)-ALP conjugate (human; bovine); experiment: HI-1000 capture immunoassay; calibrator C5, 43.86 mU/L; run 2
[5] = molecular target: CD9(FL)-ALP conjugate (human; bovine); experiment: HI-1000 capture immunoassay; calibrator C2, 5.48 mU/L; run 1
[6] = molecular target: CD9(ECD)-ALP conjugate (human; bovine); experiment: HI-1000 capture immunoassay; primary calibrator C1, 1.52 ng/mL; run 2
[7] = molecular target: CD9(ECD)-ALP conjugate (human; bovine); experiment: HI-1000 capture immunoassay; secondary calibrator C1, 1.02 U/L; run 1
[8] = molecular target: CD9(ECD)-ALP conjugate (human; bovine); experiment: HI-1000 capture immunoassay; secondary calibrator C1, 1.02 U/L; run 2
[9] = molecular target: CD9(ECD)-ALP conjugate (human; bovine); experiment: HI-1000 capture immunoassay; primary calibrator C2, 4.89 ng/mL; run 3
[10] = molecular target: CD9(ECD)-ALP conjugate (human; bovine); experiment: HI-1000 capture immunoassay; secondary calibrator C3, 14.32 U/L; run 3
[11] = molecular target: CD9(FL)-ALP conjugate (human; bovine); experiment: HI-1000 capture immunoassay; calibrator C1, 1.0 ng/mL; mean of 3
[12] = molecular target: CD9(ECD)-ALP conjugate (human; bovine); experiment: HI-1000 capture immunoassay; primary calibrator C1, 1.52 ng/mL; run 3
[13] = molecular target: CD9(ECD)-ALP conjugate (human; bovine); experiment: HI-1000 capture immunoassay; thawed aliquot 2 of secondary calibrator C2
[14] = molecular target: CD9(ECD)-ALP conjugate (human; bovine); experiment: HI-1000 capture immunoassay; primary calibrator C4, 50.05 ng/mL; run 3
[15] = molecular target: CD9(FL)-ALP conjugate (human; bovine); experiment: HI-1000 capture immunoassay; calibrator C3, 10.96 mU/L; mean of 3
[16] = molecular target: CD9(FL)-ALP conjugate (human; bovine); experiment: HI-1000 capture immunoassay; calibrator C1, 1.83 mU/L; run 2
[17] = molecular target: CD9(ECD)-ALP conjugate (human; bovine); experiment: HI-1000 capture immunoassay; secondary calibrator C3, 14.32 U/L; run 2
[18] = molecular target: CD9(FL)-ALP conjugate (human; bovine); experiment: HI-1000 capture immunoassay; calibrator C1, 1.83 mU/L; mean of 3
[19] = molecular target: CD9(ECD)-ALP conjugate (human; bovine); experiment: HI-1000 capture immunoassay; primary calibrator C4, 50.05 ng/mL; mean of 3
[20] = molecular target: CD9(ECD)-ALP conjugate (human; bovine); experiment: HI-1000 capture immunoassay; secondary calibrator C5, 387.01 U/L; run 3
[21] = molecular target: CD9(FL)-ALP conjugate (human; bovine); experiment: HI-1000 capture immunoassay; calibrator C2, 5.48 mU/L; run 3
[22] = molecular target: CD9(FL)-ALP conjugate (human; bovine); experiment: HI-1000 capture immunoassay; calibrator C4, 15 ng/mL; run 2
[23] = molecular target: CD9(FL)-ALP conjugate (human; bovine); experiment: HI-1000 capture immunoassay; calibrator C2, 3.7 ng/mL; mean of 3
[24] = molecular target: CD9(FL)-ALP conjugate (human; bovine); experiment: HI-1000 capture immunoassay; calibrator C5, 43.86 mU/L; mean of 3
[25] = molecular target: CD9(ECD)-ALP conjugate (human; bovine); experiment: HI-1000 capture immunoassay; primary calibrator C3, 15.65 ng/mL; run 3
[26] = molecular target: CD9(ECD)-ALP conjugate (human; bovine); experiment: HI-1000 capture immunoassay; primary calibrator C1, 1.52 ng/mL; run 1
[27] = molecular target: CD9(ECD)-ALP conjugate (human; bovine); experiment: HI-1000 capture immunoassay; secondary calibrator C3, 14.32 U/L; run 1
[28] = molecular target: CD9(FL)-ALP conjugate (human; bovine); experiment: HI-1000 capture immunoassay; calibrator C5, 30 ng/mL; run 1
[29] = molecular target: CD9(ECD)-ALP conjugate (human; bovine); experiment: HI-1000 capture immunoassay; secondary calibrator C5, 387.01 U/L; run 1
[30] = molecular target: CD9(ECD)-ALP conjugate (human; bovine); experiment: HI-1000 capture immunoassay; thawed aliquot 2 of secondary calibrator C1
[31] = molecular target: CD9(FL)-ALP conjugate (human; bovine); experiment: HI-1000 capture immunoassay; calibrator C5, 30 ng/mL; run 2
[32] = molecular target: CD9(ECD)-ALP conjugate (human; bovine); experiment: HI-1000 capture immunoassay; secondary calibrator C5, 387.01 U/L; run 2
[33] = molecular target: CD9(FL)-ALP conjugate (human; bovine); experiment: HI-1000 capture immunoassay; calibrator C2, 3.7 ng/mL; run 3
[34] = molecular target: CD9(ECD)-ALP conjugate (human; bovine); experiment: HI-1000 capture immunoassay; thawed aliquot 3 of secondary calibrator C1
[35] = molecular target: CD9(FL)-ALP conjugate (human; bovine); experiment: HI-1000 capture immunoassay; calibrator C1, 1.83 mU/L; run 3
[36] = molecular target: CD9(FL)-ALP conjugate (human; bovine); experiment: HI-1000 capture immunoassay; calibrator C3, 10.96 mU/L; run 2
[37] = molecular target: CD9(FL)-ALP conjugate (human; bovine); experiment: HI-1000 capture immunoassay; calibrator C3, 7.4 ng/mL; run 2
[38] = molecular target: CD9(ECD)-ALP conjugate (human; bovine); experiment: HI-1000 capture immunoassay; thawed aliquot 1 of secondary calibrator C4
[39] = molecular target: CD9(FL)-ALP conjugate (human; bovine); experiment: HI-1000 capture immunoassay; calibrator C4, 21.93 mU/L; run 1
[40] = molecular target: CD9(ECD)-ALP conjugate (human; bovine); experiment: HI-1000 capture immunoassay; thawed aliquot 2 of secondary calibrator C5

CD9(ECD)-ALP conjugate (human; bovine), sequence (chain, as listed by the source, chain 1 of 2): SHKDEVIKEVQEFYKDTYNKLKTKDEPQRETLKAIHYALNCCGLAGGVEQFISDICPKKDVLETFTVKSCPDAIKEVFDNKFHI
CD9(ECD)-ALP conjugate (human; bovine), sequence (P19111 20-506, chain 2 of 2): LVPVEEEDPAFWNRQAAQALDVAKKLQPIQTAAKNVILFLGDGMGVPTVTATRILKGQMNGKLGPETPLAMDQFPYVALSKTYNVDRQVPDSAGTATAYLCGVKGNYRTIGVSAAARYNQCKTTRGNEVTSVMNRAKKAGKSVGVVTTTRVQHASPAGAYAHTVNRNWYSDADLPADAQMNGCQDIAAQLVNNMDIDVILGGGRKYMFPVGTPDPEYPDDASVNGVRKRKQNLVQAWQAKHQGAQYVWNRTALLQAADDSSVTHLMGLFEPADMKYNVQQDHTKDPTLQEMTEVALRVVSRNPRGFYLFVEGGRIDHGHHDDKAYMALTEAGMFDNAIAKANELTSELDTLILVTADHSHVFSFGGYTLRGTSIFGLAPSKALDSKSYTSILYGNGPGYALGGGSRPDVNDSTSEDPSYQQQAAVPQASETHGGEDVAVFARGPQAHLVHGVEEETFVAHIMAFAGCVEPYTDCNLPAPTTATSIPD
CD9(FL)-ALP conjugate (human; bovine), sequence (chain, as listed by the source, chain 1 of 2): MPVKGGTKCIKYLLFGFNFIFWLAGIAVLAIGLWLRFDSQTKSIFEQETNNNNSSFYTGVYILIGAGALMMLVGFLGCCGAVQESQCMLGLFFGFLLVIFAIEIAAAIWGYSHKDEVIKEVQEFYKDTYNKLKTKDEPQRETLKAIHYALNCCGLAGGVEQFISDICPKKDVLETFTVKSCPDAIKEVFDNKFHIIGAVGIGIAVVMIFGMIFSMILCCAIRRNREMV
CD9(FL)-ALP conjugate (human; bovine), sequence (P19111 20-506, chain 2 of 2): as the sequence (P19111 20-506, chain 2 of 2) above

**Q.** For anti-CD9 antibody (Clone: H19a), which Count value [1] is on record?
**A.** The Count value was 22400 count.

**Q.** What about the Count value [2] of the same substance?
**A.** Its Count value is 12000 count.

**Q.** What about the Count value [3] of the same substance?
**A.** Its Count value is 1520 count.

**Q.** What about the Count value [4] of the same substance?
**A.** The Count value was 25600 count.

**Q.** And the Count value [5]?
**A.** The Count value was 3630 count.

**Q.** What about the Count value [6] of the same substance?
**A.** Its Count value is 1100 count.

**Q.** What about the Count value [7] of the same substance?
**A.** Its Count value is 975 count.

**Q.** And the Count value [8]?
**A.** The Count value was 937 count.

**Q.** What about the Count value [9] of the same substance?
**A.** Its Count value is 2540 count.

**Q.** What about the Count value [10] of the same substance?
**A.** Its Count value is 8060 count.

**Q.** What about the Count value (av) [11] of the same substance?
**A.** Its Count value (av) is 1480 count.

**Q.** What about the Count value [12] of the same substance?
**A.** The Count value was 1120 count.

**Q.** What about the Count value [13] of the same substance?
**A.** The Count value was 1580 count.

**Q.** And the Count value [14]?
**A.** Its Count value is 22600 count.

**Q.** What about the Count value (av) [15] of the same substance?
**A.** Its Count value (av) is 6750 count.

**Q.** What about the Count value [16] of the same substance?
**A.** Its Count value is 1580 count.

**Q.** And the Count value [17]?
**A.** The Count value was 8240 count.

**Q.** And the Count value (av) [18]?
**A.** Its Count value (av) is 1540 count.

**Q.** What about the Count value (av) [19] of the same substance?
**A.** Its Count value (av) is 22200 count.

**Q.** And the Count value [20]?
**A.** Its Count value is 209000 count.

**Q.** And the Count value [21]?
**A.** The Count value was 3780 count.

**Q.** What about the Count value [22] of the same substance?
**A.** The Count value was 13800 count.

**Q.** What about the Count value (av) [23] of the same substance?
**A.** The Count value (av) was 4280 count.

**Q.** And the Count value (av) [24]?
**A.** Its Count value (av) is 26400 count.

**Q.** And the Count value [25]?
**A.** Its Count value is 6980 count.

**Q.** What about the Count value [26] of the same substance?
**A.** The Count value was 1080 count.

**Q.** What about the Count value [27] of the same substance?
**A.** The Count value was 7980 count.

**Q.** And the Count value [28]?
**A.** The Count value was 24600 count.

**Q.** And the Count value [29]?
**A.** The Count value was 220000 count.

**Q.** What about the Count value [30] of the same substance?
**A.** The Count value was 810 count.

**Q.** What about the Count value [31] of the same substance?
**A.** The Count value was 26900 count.

**Q.** And the Count value [32]?
**A.** The Count value was 218000 count.

**Q.** What about the Count value [33] of the same substance?
**A.** Its Count value is 3800 count.

**Q.** What about the Count value [34] of the same substance?
**A.** Its Count value is 805 count.

**Q.** And the Count value [35]?
**A.** Its Count value is 1460 count.

**Q.** What about the Count value [36] of the same substance?
**A.** Its Count value is 7090 count.

**Q.** And the Count value [37]?
**A.** Its Count value is 7020 count.

**Q.** What about the Count value [38] of the same substance?
**A.** Its Count value is 11400 count.

**Q.** What about the Count value [39] of the same substance?
**A.** Its Count value is 13400 count.

**Q.** And the Count value [40]?
**A.** Its Count value is 36800 count.
